{
  "source": "paper PMC4949581",
  "key": {"purified protein [1]": {"substrate": "O=[N+]([O-])c1ccc(O[C@@H]2O[C@H](CO)[C@@H](O)[C@H](O)[C@H]2O)cc1", "assay": "purified protein", "settings": "60.0 °C"}, "purified protein [2]": {"substrate": "OC[C@H]1O[C@@H](O[C@H]2[C@H](O)[C@@H](CO)OC(O)[C@@H]2O)[C@H](O)[C@@H](O)[C@@H]1O", "assay": "purified protein", "settings": "60.0 °C"}},
  "data": [
    {"protein": "TxGH116 β-glucosidase (Thermoanaerobacterium xylanolyticum LX-11) (protein) LTGCSEKININEDKISHKIDIPDSAWTIGIGEKFKNAGHPNVKYPMIDDSYVQGAPLGGFGAGTIGRTYNGGFSRWHLEIGKNKYTTVYANQFSVFQKVEGNKDGVAQVLYAGEPENGYLSSWKWDYPKESGMYYALYPNSWYTYTNKDLPVQLAVKQFSPIIPYNYKETSYPVAVFKWTAYNPTNKNVDVSIMFTWQNMIGFFGKQVNVNSGNFNKIIKDKSKDSEIVAAVMGNISNDNEEWNGEYSIGVKKVPGVDISYKAKFVTTGDGSDLWHEFSKNGILDNKDDETPTKQDGIGSAIAVNFKLQPGQTIEVPFALSWDLPIMKFGGGDKWYKMYTKYFGKNGKNSFAILKEALNNYQKWEKMIDDWQKPILSNKSKPDWYKTALFNELYYLADGGTAWENGKVGEKDKRTNNMFGLLECFDYNYYETLDVRFYGSFPLVMLWPDIEKQVMRQFADTINVQDSSEFKVGSNGAMAVKKVQGMIPHDLGSSYALPWIKINAYDWQNPNIWKDLNSKYVLLVYRDYVLTGKTDKEFLKYTWKSVKTALDKLKEMDKDNDGIPDNEGIPDQTYDTWSMKGTSAYCGSLWLAALKAAQEIGKVLKDNEAYIKYNEWYKIAQQNFEKELWNGEYYNFDTESDHKDSIMADQLAGQWYADILRLGDILPKDHVQKALKKIYEFNVMKFENGKMGAVNGMRPDGIVDESDIQAQEVWTGVTYALASFMKYRGMTEEAYNTAYGVYKMTYDKSGKGYWFRTPEAWTKDGNYRASMYMRPLSIWSMEVNYNEV", "values": [
      {"measurement": "Km", "setting": "purified protein [1]", "result": "180 ± 8", "unit": "µM"},
      {"measurement": "kcat", "setting": "purified protein [1]", "result": "49 ± 0.8", "unit": "s⁻¹"},
      {"measurement": "kcat/Km", "setting": "purified protein [1]", "result": 272000, "unit": "M⁻¹ s⁻¹"},
      {"measurement": "Km", "setting": "purified protein [2]", "result": "270 ± 18", "unit": "µM"},
      {"measurement": "kcat", "setting": "purified protein [2]", "result": "41.4 ± 0.7", "unit": "s⁻¹"},
      {"measurement": "kcat/Km", "setting": "purified protein [2]", "result": 153000, "unit": "M⁻¹ s⁻¹"}
    ]}
  ]
}
